In publication PMC4820699, “Localisation and protein-protein interactions of the Helicobacter pylori taxis sensor TlpD and their connection to metabolic functions” (Scientific Reports, 2016):

Target: T1, purified recombinant H. pylori catalase (KatA) (H. pylori, UniProt P77872 1-505)
T1 construct: Catalase KatA of Helicobacter pylori, recombinant, active, tag-free; source: E. coli, recombinant, tag-free, purified
T1 sequence: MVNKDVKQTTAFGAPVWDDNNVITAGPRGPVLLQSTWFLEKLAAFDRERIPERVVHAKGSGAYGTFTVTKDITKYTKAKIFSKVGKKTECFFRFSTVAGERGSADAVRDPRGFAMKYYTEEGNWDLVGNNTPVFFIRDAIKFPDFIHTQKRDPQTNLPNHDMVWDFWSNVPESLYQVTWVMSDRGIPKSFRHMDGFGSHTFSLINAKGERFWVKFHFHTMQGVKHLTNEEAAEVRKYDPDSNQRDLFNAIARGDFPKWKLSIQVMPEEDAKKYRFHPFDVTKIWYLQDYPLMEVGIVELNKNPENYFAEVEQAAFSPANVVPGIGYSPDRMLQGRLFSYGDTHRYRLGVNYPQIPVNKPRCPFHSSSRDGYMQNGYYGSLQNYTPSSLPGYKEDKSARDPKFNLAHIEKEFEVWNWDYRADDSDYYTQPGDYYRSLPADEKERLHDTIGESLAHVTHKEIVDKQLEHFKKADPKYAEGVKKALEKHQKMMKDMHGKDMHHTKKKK
Assay: BLI; Octet RED96; inverse setting: ligand KatA (tag-free) coupled to the sensor via free amine groups, analyte TlpD-V5 at 200, 400 and 2,000 nM in assay buffer, association 1,800 sec; two-state parallel binding model
Settings: both partners purified

B1: TlpD-V5 (purified from H. pylori) (natural protein)
chain: not shown
notes: Transducer-like protein / energy taxis sensor TlpD of Helicobacter pylori; tlpD-V5 fusion gene with the potential tlpD promoter region in pHel2; also called TlpD (V5-tagged); native TlpD-V5; not shown: V5, C-terminal, kept
For B1, the “KD (fast on, slow off; two-state parallel model)” value was 275 nM and the “KD (slow on, fast off; two-state parallel model)” value was 2000 nM.
